Experimental data taken from patent US20200172617A1.

How the values were obtained:
[1] = target: LAG-3 (as used in the Biacore assay) (UniProt P18627); assay: Biacore (SPR); format not described
[2] = target: LAG-3 (in the in vitro cell-based assays) (UniProt P18627); assay: in vitro cell-based assays; format not described
[3] = target: soluble LAG-3 (human) (UniProt P18627); assay: population PK/PD target-mediated drug disposition model (quasi-equilibrium) fitted to antibody and total soluble LAG-3 concentrations in patient serum; model estimate

- Kd [1]: 0.1 nM
- Kd [2]: 1.9 to 2.3 nM
- Kd [3]: 1.5 nM
B1: LAG525 (antibody, INN chains, looked up, V domains shown)
VH: QVQLVQSGAEVKKPGASVKVSCKASGFTLTNYGMNWVRQARGQRLEWIGWINTDTGEPTYADDFKGRFVFSLDTSVSTAYLQISSLKAEDTAVYYCARNPPYYYGTNNAEAMDYWGQGTTVTVSS
VL: DIQMTQSPSSLSASVGDRVTITCSSSQDISNYLNWYLQKPGQSPQLLIYYTSTLHLGVPSRFSGSGSGTEFTLTISSLQPDDFATYYCQQYYNLPWTFGQGTKVEIK
